The source of these data is publication PMC5650172, “Impact of the structural integrity of the three-way junction of adenovirus VAI RNA on PKR inhibition”.

Data set [1] deals with PKR (full length) (human, UniProt P19525 1-551). The data set can be described thus: EMSA; 5 mM Mg2+; Kd only in figure inset; […], room temperature 10 min, […]; SEC: 50 mM Tris pH 7.5, 100 mM NaCl, 5 mM MgCl2. The settings on record: protein: recombinant; three-way junction RNA, apical and central stem-loops.
The target of data set [2] is PKR1-169 (tandem dsRBMs) (human, UniProt P19525 1-169). In words: SEC co-elution, native PAGE; 5 mM Mg2+; 1.1-fold excess RNA; complex also studied by SAXS; […], room temperature 10 min, […]; SEC: 50 mM Tris pH 7.5, 100 mM NaCl, 5 mM MgCl2. The settings on record: protein: recombinant; three-way junction RNA, apical and central stem-loops.
Chain of PKR1-169 (tandem dsRBMs) (P19525 1-169): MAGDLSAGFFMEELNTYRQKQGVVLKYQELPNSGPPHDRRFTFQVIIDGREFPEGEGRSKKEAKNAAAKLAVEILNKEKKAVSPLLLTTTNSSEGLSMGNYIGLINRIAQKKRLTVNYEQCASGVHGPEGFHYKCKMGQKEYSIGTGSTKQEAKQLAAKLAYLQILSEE

Chain of PKR (full length) (P19525 whole entry): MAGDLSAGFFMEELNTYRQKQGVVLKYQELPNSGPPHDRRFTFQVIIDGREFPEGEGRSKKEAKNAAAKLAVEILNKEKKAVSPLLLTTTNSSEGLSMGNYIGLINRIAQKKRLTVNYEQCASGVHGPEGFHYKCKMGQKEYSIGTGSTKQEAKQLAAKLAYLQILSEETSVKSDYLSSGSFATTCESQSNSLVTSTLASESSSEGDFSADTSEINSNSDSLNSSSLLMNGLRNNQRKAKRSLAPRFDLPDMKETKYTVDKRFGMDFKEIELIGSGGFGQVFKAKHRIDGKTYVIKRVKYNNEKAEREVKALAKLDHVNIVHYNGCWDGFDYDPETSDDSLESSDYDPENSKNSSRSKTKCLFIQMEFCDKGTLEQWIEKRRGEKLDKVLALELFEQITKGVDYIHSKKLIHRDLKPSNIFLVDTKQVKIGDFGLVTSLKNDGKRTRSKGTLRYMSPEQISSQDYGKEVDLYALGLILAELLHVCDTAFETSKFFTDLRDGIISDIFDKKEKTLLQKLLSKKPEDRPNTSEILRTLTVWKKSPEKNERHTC

B1: VAI dTS (wt RNA) (structured_RNA)
RNA: GGCAAGGGUAUCAUGGCGGACGACCGGGGUUCGAACCCCGGAUCCGGCCGUCCGCCGUGAUCCAUGCGGUUACCGCCCGCGUGUCGAACCCAGGUGUGCC
As to B1, the binding result in data set [1] and in data set [2] was “binds” throughout.
